In patent US8323941B2, “Histone demethylation mediated by the nuclear amine oxidase homolog LSD1” (President and Fellows of Harvard College, priority 2004, dated 2012):

B1: del 4: CoREST deletion mutant aa 105-293 (protein)
chain: GPQYQAVVPDFDPAKLARRSQERDNLGMLVWSPNQNLSEAKLDEYIAIAKEKHGYNMEQALGMLFWHKHNIEKSLADLPNFTPFPDEWTVEDKVLFEQAFSFHGKTFHRIQQMLPDKSIASLVKFYYSWKKTRTKTSVMDRHARKQKREREESEDELEEANGNNPIDIEVDQNKESKKEVPPTETVPQV
modifications: left off: small tags and cut ends
B2: del 1: CoREST deletion mutant aa 1-293 (protein)
chain: MVEKGPEVSGKRRGRNNAAASASAAAASAAASAACASPAATAASGAAASSASAAAASAAAAPNNGQNKSLAAAAPNGNSSSNSWEEGSSGSSSDEEHGGGGMRVGPQYQAVVPDFDPAKLARRSQERDNLGMLVWSPNQNLSEAKLDEYIAIAKEKHGYNMEQALGMLFWHKHNIEKSLADLPNFTPFPDEWTVEDKVLFEQAFSFHGKTFHRIQQMLPDKSIASLVKFYYSWKKTRTKTSVMDRHARKQKREREESEDELEEANGNNPIDIEVDQNKESKKEVPPTETVPQV
modifications: left off: small tags and cut ends

Key:
GST-LSD1 = target: T1, GST-LSD1 (Homo sapiens, UniProt O60341); assay: GST pulldown of HIS-tagged CoREST and mutants; format: binding; details: Coomassie Blue staining
T1 construct: made in house; host or cells: bacteria (inferred from 'similar procedure' to the His-tagged proteins)
Experimental: To identify domains of CoREST that are involved in physical interactions with LSD1, GST-LSD1 or GST was incubated with bacterially purified, HIS-tagged CoREST and its mutant derivatives. […] This places the putative LSD1-binding domain within the C-terminal functional domain of CoREST, somewhere between aa 293-381 of CoREST. […] We therefore speculate that the SANT2 domain may be involved in mediate binding to the nucleosomal substrate. Taken together, these findings are consistent with the idea that CoREST functions as a bridging protein. The weak stimulatory activity of the N-terminal CoREST (del1, aa 1-293) remains unclear at the present time.
GST and GSTLSD1 plamsids were kind gifts from Dr. Tadashi Baba's Lab in Japan (Iwase et al., 2004). Expression and purification of GST and GSTLSD1 proteins were done using similar procedure as outlined for purification of his-tagged recombinant proteins. For GST-bead pulldown experiment, 2 μg of each purified his-tagged wt or del CoREST proteins were incubated with 5 μg of bound GST and GSTLSD1 proteins at 4° C. for 4 hrs in a binding buffer (50 mM Tris, pH 8.0, 300 mM NaCl, 1 mM DTT, 0.5 mM EDTA and 0.1% NP-40). The beads were washed 3 times in the binding buffer, resuspended in 2×SDS protein sample buffer, boiled for 5 mins and loaded onto 15% SDS PAGE gel. The gel was then stained with Coomassie Blue.

LSD1 = target: T2, LSD1 (Homo sapiens, UniProt O60341); assay: LSD1 demethylation assay on nucleosomal substrates (mononucleosomes), Western blotting; format: biochemical; details: CoREST deletion mutant
T2 construct: Full length (1-851aa) and C-terminal deleted (1-427 aa) human LSD1 cDNAs; 6xHis (N); made in house; host or cells: bacteria
Experimental: Preparation of mononucleosome. Mononucleosome was made according to a standard protocol (Tagami et al., 2004; Utley et al., 1996). Briefly, nuclear pellet from both TSA-treated or non-treated HeLa cells was homogenized for 60 times with type A pestle to obtain oligo-nucleosomes. The oligo-nucleosomes were then digested with micrococcal nuclease (40 units/mL) for 10 mins at 30° C. The nuclease is inactivated by 5 mM EDTA. Digested materials were spun at 14000 rpm for 3 mins. Resulting supernatant was spun again for additional 3 mins at the same speed. Supernatant from the second spin was subject to 10-25% glycerol gradient sedimentation. The monocleosome-containing fractions were identified by examining aliquots of fractions (treated with proteinase K) on DNA agarose gel. An aliquot of TSA-treated or non TSA-treated mononucleosome, a kind gift from Dr. Yoshihiro Nakatani's Lab in Dana Faber Cancer Institute, Harvard Medical School (Tagami et al., 2004), was used here as a control for the quality of mononucleosome made in our lab.
Demethylation assay. LSD1 demethylation activity on free histone or nucleosomal histone was carried out as previously reported (Shi et al., 2004). […] The demethylase activity of LSD1 under various conditions was evaluated by Western blotting using K4-H3 methylation-specific antibodies.

Molecule | binding to LSD1 (GST-LSD1) | stimulatory activity on LSD1 demethylation (LSD1)
B1 | did not | 
B2 | did not | ~30 % of the wildtype CoREST activity
